The target in data set [1] is GiTim17 synthesized in vitro (PURExpress) in lecithin liposomes (Giardia intestinalis). In words: native gel or EMSA; 35S-labelled GiTim17 translated in vitro with lecithin liposomes; pellet washed with 2 M urea in 50 mM sodium phosphate pH 8; Blue Native PAGE with 2% digitonin, 4-16% Bis-Tris gel.
Data set [2] deals with the molecule itself. Kind of data set: non-reducing SDS-PAGE; GiTim17 in vivo in Giardia; ~40 kDa complex on nonreducing SDS-PAGE, no reducing agent.

In turn, “GiTim17 synthesized in vitro (PURExpress) in lecithin liposomes (natural protein)” registered a stoichiometry N in data set [1] of 2.

B1: Giardia intestinalis Tim17 protein (GiTim17), in vivo in Giardia (natural protein, UniProt D3KGG5 1-180, looked up)
chain: MLRLWQEYVQEDDVLACLSVLDEDCQRAVQVIERLDVEGGTPEMQTHERVCTSFSHGLIRTALRRFPLALSKNLGRVQSMLNAFNHALQETSTESFSHAISSSCGSLVSSLCNNPSAGAAMGALPNLRKSPGAALSALLMGPTIAHLVGSVYSLGLNAYHICKLELRDLRLHRAEMDKKA
notes: Tim17 family protein of Giardia intestinalis, GL50803_10452, a protein of 180 amino acids, predicted mass 19.4 kDa; also called GL50803_10452
For B1, the “stoichiometry N” value in data set [2] is about 2.
